Where two headings read alike, the source gives them in different places. No end group written: not given here.

One may read the IC50 as the concentration that gives 50% inhibition.

The target of experiment [1] is soluble I-A^g7 (I-Aα–Fos / I-Aβ–Jun heterodimer) (mouse (NOD) | not stated). As to the kind of experiment: antibody-capture peptide binding assay with europium-streptavidin.
Experiment [2] shares this target. The experiment is described as above. This is another data set of the same source.
Experiment [3] has the same target. Briefly: peptide dissociation assay.
Experiment [4] shares this target. As to the kind of experiment: peptide dissociation assay. This is another data set of the same source.
Experiment [5] concerns I-A^g7. The class given is binding, NOD mice. The following applies: pH 5, competitor 8 nM–25 μM vs biotinylated transferrin peptide (1 μM).
The subject of experiment [6] is I-A^g7. The experiment is classed as binding, NOD mice. The settings on record: biotinylated peptide, pH 5.0, 37°C.

Consider Murine CLIP (86–100) peptide, unlabeled, for which the figures for the IC50 in experiment [1] and in experiment [2] were 50 µM and more than 125 µM, respectively.

With “Murine serum albumin (560–574) peptide, biotinylated”, the dissociation time (t1/2) in experiment [3] and in experiment [4] was more than 72 h in each case.

In experiment [1], “Murine CLIP analogue with V at position 98 (P9), unlabeled (from UniProt P04441 86-100) (peptide)” returned an IC50 of 50 µM.

In experiment [3], “Murine CLIP (86–100) peptide, biotinylated” showed a dissociation time (t1/2) of 1 h.

In the case of “Murine transferrin (55–68) peptide, biotinylated”, the results for the dissociation time (t1/2) in experiment [3] and in experiment [4] were 45 h and more than 72 h, respectively.

With EEVDMTPADALDDFD [HSV-2 VP16 (430–444)], in experiment [5], the “Binding to I-A^g7 in competition assay (in words)” value was “competed for binding of the biotinylated transferrin peptide at high peptide concentrations”. Moreover, in experiment [6], the “Binding to I-A^g7 in direct binding assay (in words), pH 5.0” value is “little binding”.

For the molecule PVSQMRMATPLLWRP [Murine CLIP analogue with W at position 98 (P9), unlabeled], the IC50 was 80 µM in experiment [1] and more than 125 µM in experiment [2].

Regarding PVSQMRMATPLLARP [Murine CLIP analogue with A at position 98 (P9), unlabeled], the IC50 in experiment [1] amounted to 2 µM; in experiment [2], 15 µM.

For PVSQMRMATPLLNRP [Murine CLIP analogue with N at position 98 (P9), unlabeled], the IC50 in experiment [1] turned out to be 80 µM; in experiment [2], 125 µM.

In the case of PVSQMRMATPLLRRP [Murine CLIP analogue with R at position 98 (P9), unlabeled], the IC50 in experiment [1] and in experiment [2] was more than 125 µM each time.

For the molecule PVSQMRMATPLLIRP [Murine CLIP analogue with I at position 98 (P9), unlabeled], the IC50 in experiment [1] and in experiment [2] was more than 125 µM throughout.

In the case of PVSQMRMATPLLQRP [Murine CLIP analogue with Q at position 98 (P9), unlabeled], the IC50 in experiment [1] is 25 µM; in experiment [2] it was more than 125 µM.

With PVSQMRMATPLLHRP [Murine CLIP analogue with H at position 98 (P9), unlabeled], the IC50 is 4 µM in experiment [1] and more than 125 µM in experiment [2].

On to PVSQMRMATPLLCRP [Murine CLIP analogue with C at position 98 (P9), unlabeled], for which the IC50 in experiment [1] is 40 µM.

Turning to PVSQMRMATPLLFRP [Murine CLIP analogue with F at position 98 (P9), unlabeled], the IC50 in experiment [1] was determined as 80 µM; in experiment [2], 50 µM.

Regarding PVSQMRMATPLLPRP [Murine CLIP analogue with P at position 98 (P9), unlabeled], the IC50 in experiment [1] and in experiment [2] was more than 125 µM each time.

Take PVSQMRMATPLLTRP [Murine CLIP analogue with T at position 98 (P9), unlabeled]: the IC50 was more than 125 µM in experiment [1] and 40 µM in experiment [2].

For the molecule PVSQMRMATPLLGRP [Murine CLIP analogue with G at position 98 (P9), unlabeled], the IC50 was 10 µM in experiment [1] and more than 125 µM in experiment [2].

PVSQMRMATPLLSRP [Murine CLIP analogue with S at position 98 (P9), unlabeled] yielded an IC50 in experiment [1] of 40 µM.

As to PVSQMRMATPLLYRP [Murine CLIP analogue with Y at position 98 (P9), unlabeled], the values for the IC50 in experiment [1] and in experiment [2] were more than 125 µM and 60 µM, respectively.

For GCALLRCIPALDSLTPANED (cysteine pairing not given here; also: biotinylated, position not given here) [Human HSP60 (441–460) peptide, biotinylated], the dissociation time (t1/2) came out at 14 h in experiment [3] and 25 h in experiment [4].

On to PVSQMRMATPLLKRP [Murine CLIP analogue with K at position 98 (P9), unlabeled], for which the IC50 in experiment [1] and in experiment [2] was more than 125 µM each time.

Take PVSQMRMATPLLLRP [Murine CLIP analogue with L at position 98 (P9), unlabeled]: the IC50 was 40 µM in experiment [1] and more than 125 µM in experiment [2].

With PVSQMRMATPLLDRP (also: biotinylated, position not given here) [Murine CLIP 98D analogue, biotinylated], the dissociation time (t1/2) in experiment [3] was 23 h; in experiment [4], 70 h.

The values above are taken from article PMC2193072 (The Journal of Experimental Medicine, 1999).
